Target: PRO-C17 monoclonal antibody
Experiment: competitive ELISA; standard peptide competes with plate-bound biotinylated … for the HRP-labelled mAb

## QGMAPAAGADLDKIGLHSDSQEELWMFVRK [30 amino acid standard peptide (…)]
  IC50: 2.1 ng/mL
  Mean IC25: 0.8 ng/mL
  Mean IC75: 5.5 ng/mL
